Source: patent US20260242735A1 (UNIVERSIT T BASEL, published 2026)

Legend:
Assay in all cases: alanine scan, flow cytometry;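 further: HEK293-T cells transiently expressing single-residue alanine mutants of CD33 (alanine swapped to serine), antibody binding read by fluorescence in duplicate, background-subtracted, expressed relative to wild-type CD33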
[1] = biological target: human CD33 W22A (human, UniProt P20138 18-364)
[2] = biological target: human CD33 Q24A (human, UniProt P20138 18-364)
[3] = biological target: human CD33 V25A (human, UniProt P20138 18-364)
[4] = biological target: human CD33 S28A (human, UniProt P20138 18-364)
[5] = biological target: human CD33 T30A (human, UniProt P20138 18-364)
[6] = biological target: human CD33 L35A (human, UniProt P20138 18-364)
[7] = biological target: human CD33 C36A (human, UniProt P20138 18-364)
[8] = biological target: human CD33 V37A (human, UniProt P20138 18-364)
[9] = biological target: human CD33 L38A (human, UniProt P20138 18-364)
[10] = biological target: human CD33 T42A (human, UniProt P20138 18-364)
[11] = biological target: human CD33 H45A (human, UniProt P20138 18-364)
[12] = biological target: human CD33 I47A (human, UniProt P20138 18-364)
[13] = biological target: human CD33 P48A (human, UniProt P20138 18-364)
[14] = biological target: human CD33 Y49A (human, UniProt P20138 18-364)
[15] = biological target: human CD33 Y50A (human, UniProt P20138 18-364)
[16] = biological target: human CD33 D51A (human, UniProt P20138 18-364)
[17] = biological target: human CD33 K52A (human, UniProt P20138 18-364)
[18] = biological target: human CD33 N53A (human, UniProt P20138 18-364)
[19] = biological target: human CD33 P55A (human, UniProt P20138 18-364)
[20] = biological target: human CD33 V56A (human, UniProt P20138 18-364)
[21] = biological target: human CD33 W60A (human, UniProt P20138 18-364)
[22] = biological target: human CD33 R62A (human, UniProt P20138 18-364)
[23] = biological target: human CD33 G64A (human, UniProt P20138 18-364)
[24] = biological target: human CD33 A65S (human, UniProt P20138 18-364)
[25] = biological target: human CD33 I66A (human, UniProt P20138 18-364)
[26] = biological target: human CD33 S68A (human, UniProt P20138 18-364)
[27] = biological target: human CD33 R69A (human, UniProt P20138 18-364)
[28] = biological target: human CD33 D70A (human, UniProt P20138 18-364)
[29] = biological target: human CD33 S71A (human, UniProt P20138 18-364)
[30] = biological target: human CD33 P72A (human, UniProt P20138 18-364)
[31] = biological target: human CD33 V73A (human, UniProt P20138 18-364)
[32] = biological target: human CD33 A74S (human, UniProt P20138 18-364)
[33] = biological target: human CD33 K77A (human, UniProt P20138 18-364)
[34] = biological target: human CD33 L78A (human, UniProt P20138 18-364)
[35] = biological target: human CD33 Q80A (human, UniProt P20138 18-364)
[36] = biological target: human CD33 E81A (human, UniProt P20138 18-364)
[37] = biological target: human CD33 V82A (human, UniProt P20138 18-364)
[38] = biological target: human CD33 E85A (human, UniProt P20138 18-364)
[39] = biological target: human CD33 R91A (human, UniProt P20138 18-364)
[40] = biological target: human CD33 N20A (human, UniProt P20138 18-364)
[41] = biological target: human CD33 L92A (human, UniProt P20138 18-364)
[42] = biological target: human CD33 F21A (human, UniProt P20138 18-364)

human CD33 E81A, sequence (P20138 18-364 E81A limits assumed): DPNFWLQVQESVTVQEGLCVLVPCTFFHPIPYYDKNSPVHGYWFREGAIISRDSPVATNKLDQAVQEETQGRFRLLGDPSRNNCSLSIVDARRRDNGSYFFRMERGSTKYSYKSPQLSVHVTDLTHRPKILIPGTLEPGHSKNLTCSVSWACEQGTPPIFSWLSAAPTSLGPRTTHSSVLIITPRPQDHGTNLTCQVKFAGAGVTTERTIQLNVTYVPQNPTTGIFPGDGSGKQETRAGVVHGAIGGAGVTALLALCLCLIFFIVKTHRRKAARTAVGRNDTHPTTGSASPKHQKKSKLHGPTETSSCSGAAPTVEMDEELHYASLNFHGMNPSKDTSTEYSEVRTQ
human CD33 S68A, sequence (P20138 18-364 S68A limits assumed): as the sequence (P20138 18-364 E81A limits assumed) above, with S51A, A64E counted along it
human CD33 V82A, sequence (P20138 18-364 V82A limits assumed): as the sequence (P20138 18-364 E81A limits assumed) above, with A64E, V65A counted along it
human CD33 V25A, sequence (P20138 18-364 V25A limits assumed): as the sequence (P20138 18-364 E81A limits assumed) above, with V8A, A64E counted along it
human CD33 N53A, sequence (P20138 18-364 N53A limits assumed): as the sequence (P20138 18-364 E81A limits assumed) above, with N36A, A64E counted along it
human CD33 S71A, sequence (P20138 18-364 S71A limits assumed): as the sequence (P20138 18-364 E81A limits assumed) above, with S54A, A64E counted along it
human CD33 I66A, sequence (P20138 18-364 I66A limits assumed): as the sequence (P20138 18-364 E81A limits assumed) above, with I49A, A64E counted along it
human CD33 T30A, sequence (P20138 18-364 T30A limits assumed): as the sequence (P20138 18-364 E81A limits assumed) above, with T13A, A64E counted along it
human CD33 T42A, sequence (P20138 18-364 T42A limits assumed): as the sequence (P20138 18-364 E81A limits assumed) above, with T25A, A64E counted along it
human CD33 V73A, sequence (P20138 18-364 V73A limits assumed): as the sequence (P20138 18-364 E81A limits assumed) above, with V56A, A64E counted along it
human CD33 R91A, sequence (P20138 18-364 R91A limits assumed): as the sequence (P20138 18-364 E81A limits assumed) above, with A64E, R74A counted along it
human CD33 P48A, sequence (P20138 18-364 P48A limits assumed): as the sequence (P20138 18-364 E81A limits assumed) above, with P31A, A64E counted along it
human CD33 G64A, sequence (P20138 18-364 G64A limits assumed): as the sequence (P20138 18-364 E81A limits assumed) above, with G47A, A64E counted along it
human CD33 S28A, sequence (P20138 18-364 S28A limits assumed): as the sequence (P20138 18-364 E81A limits assumed) above, with S11A, A64E counted along it

Mean % WT Binding [1]: 110 % WT
Mean % WT Binding [2]: 103 % WT
Mean % WT Binding [3]: 87.1 % WT
Mean % WT Binding [4]: 117 % WT
Mean % WT Binding [5]: 92.1 % WT
Mean % WT Binding [6]: 119 % WT
Mean % WT Binding [7]: 117 % WT
Mean % WT Binding [8]: 118 % WT
Mean % WT Binding [9]: 112 % WT
Mean % WT Binding [10]: 112 % WT
Mean % WT Binding [11]: 73.6 % WT
Mean % WT Binding [12]: 2.1 % WT
Mean % WT Binding [13]: 109 % WT
Mean % WT Binding [14]: 44.2 % WT
Mean % WT Binding [15]: 141 % WT
Mean % WT Binding [16]: 59 % WT
Mean % WT Binding [17]: 94.9 % WT
Mean % WT Binding [18]: 96 % WT
Mean % WT Binding [19]: 120 % WT
Mean % WT Binding [20]: 80.7 % WT
Mean % WT Binding [21]: 2.8 % WT
Mean % WT Binding [22]: 124 % WT
Mean % WT Binding [23]: 114 % WT
Mean % WT Binding [24]: 112 % WT
Mean % WT Binding [25]: 118 % WT
Mean % WT Binding [26]: 112 % WT
Mean % WT Binding [27]: 138 % WT
Mean % WT Binding [28]: 110 % WT
Mean % WT Binding [29]: 112 % WT
Mean % WT Binding [30]: 114 % WT
Mean % WT Binding [31]: 99.1 % WT
Mean % WT Binding [32]: 91.7 % WT
Mean % WT Binding [33]: 123 % WT
Mean % WT Binding [34]: 108 % WT
Mean % WT Binding [35]: 112 % WT
Mean % WT Binding [36]: 107 % WT
Mean % WT Binding [37]: 116 % WT
Mean % WT Binding [38]: 114 % WT
Mean % WT Binding [39]: 119 % WT
Mean % WT Binding [40]: 121 % WT
Mean % WT Binding [41]: 106 % WT
Mean % WT Binding [42]: 120 % WT
B1: Refmab #2 (antibody, V domains shown)
VH: QVQLVQSGAEVKKPGSSVKVSCKASGGTFSDYAISWVRQAPGQGLEWMGRIIPILGVADYAQKFQGRVTITADKSTRTAYMELSSLRSEDTAVYYCARNWADAFDIWGQGTMVTVSS
VL: DIQLTQSPSSLSASVGDRVTITCRASQGISSVLAWYQQKPGKAPKLLIYDASSLESGVPSRFSGSGSGTDFTLTISSLQPEDFATYYCQQFDSSITFGQGTKLEIK
notes: Full-length format is human IgG1 Fc silent (PG-LALA); The alanine scan used IgG or Fab
